This passage reports binding score results from PMC9876794 (2022).

B1: D026 (antibody, V domains shown)
VH: EVQLVESGGGLVQPGRSLRLSCAASGFTFDDYAMHWVRQAPGKGLEWVSGISWNSGSIGYADSVKGRFTISRDNAKNSLYLQMNSLRAEDTALYYCAKDIHYDSSGLDYWGQGTLVTVSS
VL: not shown
B2: D181 (antibody, V domains shown)
VH: QVQLQESGPGLVKPSQTLSLTCTVSGGSISSGGYYWSWIRQHPGKGLEWIGYIYYSGSTYYNPSLKSRVTISVDTSKNQFSLKLSSVTAADTAVYYCARDRMEIYYDSSGYHPGPFDYWGQGTLVTVSS
VL: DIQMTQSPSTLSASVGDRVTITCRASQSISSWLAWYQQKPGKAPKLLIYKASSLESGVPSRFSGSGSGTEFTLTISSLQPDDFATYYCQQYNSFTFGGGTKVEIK
B3: D175 (antibody, V domains shown)
VH: QLQLQESGPGLVKPSETLSLTCTVSGGSISSSSYYWGWIRQPPGKGLEWIGSIYYSGSTYYNPSLKSRVTISVDTSKNQFSLKLSSVTAADTAVYYCARGATYYYDSSGYYTPAPFDYWGQGTLVTVSS
VL: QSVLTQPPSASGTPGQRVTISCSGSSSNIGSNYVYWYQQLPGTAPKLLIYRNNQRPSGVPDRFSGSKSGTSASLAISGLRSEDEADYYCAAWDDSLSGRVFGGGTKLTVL
B4: C2725 (antibody, V domains shown)
VH: EVQLVESGGGLVQPGRSLRLSCAASGFTFDDYAMHWVRQAPGKGLEWVSGISWNSGSIGYADSVKGRFTISRDNAKNSLYLQMNSLRAEDTALYYCAKLSRGHYYDFKADSGDFDYWGQGTLVTVSS
VL: QSALTQPASVSGSPGQSITISCTGTSSDVGSYNLVSWYQQHPGKAPKLMIYEGSKRPSGVSNRFSGSKSGNTASLTISGLQAEDEADYYCCSYAGSSWVFGGGTKLTVL
B5: C2692 (antibody, V domains shown)
VH: EVQLVESGGGLVQPGRSLRLSCAASGFTFDDYAMHWVRQAPGKGLEWVSGISWNSGSIGYADSVKGRFTISRDNAKNSLYLQMNSLRAEDTALYYCAKDIDTMVQGGEFYFDYWGQGTLVTVSS
VL: QSALTQPASVSGSPGQSITISCTGTSSDVGGYNYVSWYQQHPGKAPKLMIYDVSNRPSGVSNRFSGSKSGNTASLTISGLQAEDEADYYCSSYTSSSTVVFGGGTKLTVL
B6: D133 (antibody, V domains shown)
VH: EVQLVESGGGLVQPGGSLRLSCAASGFTFSSYDMHWVRQATGKGLEWVSAIGTAGDTYYPGSVKGRFTISRENAKNSLYLQMNSLRAGDTAVYYCARGTTVSQQYPSGIPYYYGMDVWGQGTTVTVSS
VL: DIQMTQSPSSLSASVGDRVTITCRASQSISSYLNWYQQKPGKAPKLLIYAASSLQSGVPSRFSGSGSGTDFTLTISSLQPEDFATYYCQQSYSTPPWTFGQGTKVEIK
B7: D011 (antibody, V domains shown)
VH: EVQLVESGGGLVQPGRSLRLSCAASGFTFDDYAMHWVRQAPGKGLEWVSGISWNSGSIGYADSVKGRFTISRDNAKNSLYLQMNSLRAEDTALYYCAKGDSSGYYFAYEDYGMDVWGQGTTVTVSS
VL: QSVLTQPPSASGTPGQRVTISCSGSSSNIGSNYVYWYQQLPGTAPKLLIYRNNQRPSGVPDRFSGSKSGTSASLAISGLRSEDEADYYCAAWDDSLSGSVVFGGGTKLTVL
B8: D119 (antibody, V domains shown)
VH: QLQLQESGPGLVKPSETLSLTCTVSGGSISSSSYYWGWIRQPPGKGLEWIGSIYYSGSTYYNPSLKSRVTISVDTSKNQFSLKLSSVTAADTAVYYCARLYSSGWYAFISWGQGTLVTVSS
VL: not shown
B9: D151 (antibody, V domains shown)
VH: QVQLQQWGAGLLKPSETLSLTCAVYGGSFSGYYWSWIRQPPGKGLEWIGEINHDGDTNYNPSLKSRVTLSVDTSKNQFSLSLSSVTAADTAVYYCARRKQQQSYYYYSIDVWGQGTTVTVSS
VL: DIQMTQSPSSLSASVGDRVTITCRATQGIRNDLGWYQQKPGKAPKRLIYAASSLQSGVPSRFSGSGSGTEFTLTISSLQPEDFATYYCLQHSSYPLTFGGGTKVEIK
B10: D139 (antibody, V domains shown)
VH: QVQLVESGGGVVQPGRSLRLSCAASGFTFSSYGMHWVRQAPGKGLEWVAVISYDGSNKYYADSVKGRFTISRDNSKNTLYLQMNSLRAEDTAVYYCAKMGGGVYCSGGSCYSSYFDYWGQGTLVTVSS
VL: AIQLTQSPSSLSASVGDRVTITCRASQGISSALAWYQQKPGKAPKLLIYDASSLESGVPSRFSGSGSGTDFTLTISSLQPEDFATYYCQQFNNYLPLTFGGGTKVEIK
B11: D110 (antibody, V domains shown)
VH: EVQLLESGGGLVQPGGSLRLSCTASGFTFSNYAMNWVRQAPGQGLEWVSAISGSGYSTYYVDSAKGRFTISRDNSKNTLYLQMNSLRADDTAVFYCTKSTYYDNSGYYSVFDYWGQGTLVTVSS
VL: NFMLTQPHSVSESPGETVTISCTRSSGNIASKFVQWFQQRPGSSPTTVIYENNQRPSGVPDRFSGSIDSSSNSASLTISGLKTEDEADYYCQSSDSTNVVFGGGTKLTVL
B12: D116 (antibody, V domains shown)
VH: EVQLVESGGGLVLPGGSLRLSCVASGFTFSSYWMTWVRQAPGKGLEWVANIQRDGREKYYVDSLKGRFSISRDNDKNSLYLQMNNLRAEDTGVYYCARAQTCTTCSSPNWFDPWGQGTLVTVSS
VL: QSVLTQPASVSGSPGQSITISCTGTSSDVGSYNLVSWYQQHPGKAPKLIIYEGSKRPSGVSNRFSGSKSGNTASLTISGLQAEDEADYYCCSYAGSNTLVFGGGTKVTVL
B13: D090 (antibody, V domains shown)
VH: EVQLVESGGGLVQPGRSLRLSCAASGFTFDDYAMHWVRQAPGKGLEWVSGISWNSGSIGYADSVKGRFTISRDNAKNSLYLQMNSLRAEDMALYYCAKGLPYSSSWYDAFDIWGQGTMVTVSS
VL: not shown
B14: D187 (antibody, V domains shown)
VH: QVQLVQSGAEVKKPGSSVKVSCKASGGTFSSYAISWVRQAPGQGLEWMGGIIPIFGTANYAQKFQGRVTITADESTSTAYMELSSLRSEDTAVYYCATRGWSGYQTMQKNAFDIWGQGTMVTVSS
VL: not shown
B15: D087 (antibody, V domains shown)
VH: QVQLVQSGAEVKKPGASVKVSCKASGYTFTNYDFNWVRQAPGQGLEWMGWMNPNSGNTGYAQKFQGRVTITRNTSINTAYMELSSLRSEDTAVYYCARAPDCSSFSCSYYFDYWGQGTLVTVSS
VL: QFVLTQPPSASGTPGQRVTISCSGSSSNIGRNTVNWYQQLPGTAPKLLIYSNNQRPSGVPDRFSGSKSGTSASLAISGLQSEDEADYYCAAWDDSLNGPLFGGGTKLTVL
B16: D130 (antibody, V domains shown)
VH: EVQLVESGGGLVQPGRSLRLSCAASGFTFDDYAMHWVRQAPGKGLEWVSGISWNSGSIGYADSVKGRFTISRDNAKNSLYLQMNSLRAEDTALYYCAKSGLYGDYDAAFDYWGQGTLVTVSS
VL: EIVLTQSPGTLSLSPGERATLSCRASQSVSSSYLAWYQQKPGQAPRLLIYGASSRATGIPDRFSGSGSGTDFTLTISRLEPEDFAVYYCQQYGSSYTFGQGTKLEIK
B17: D134 (antibody, V domains shown)
VH: EVQLVESGGGVVQPGGSLRLSCAASGFTFDDYAMHWVRQAPGKGLEWVSLISGDGGSTYYADSVKGRFTISRDNSKNSLYLQMNSLRTEDTALYYCANGERGGNPRGGYYYYGMDVWGQGTTVTVSS
VL: EIVLTQSPATLSLSPGERATLSCRASQSVSSYLAWYQQKPGQAPRLLIYDASNRATGIPARFSGSGSGTDFTLTISSLEPEDFAVYYCQQRSNWPPYTFGQGTKLEIK
B18: D135 (antibody, V domains shown)
VH: EVQLVESGGGLIQPGGSLRLSCAASGFTVSSNYMTWVRQAPGKGLEWVSLIYSGGSTYYTDSVKGRFTISRDNSKNTLYLQMNSLRAEDTAVYYCARLLITMVRGVISSGLDYWGQGTLVTVSS
VL: EIVLTQSPGTLSLSPGERATLSCRASQSVSSSYLAWYQQRPGQPPRLLIYGASSRATGIPDRFSDSGSGTDFTLTISRLEPEDFAVYYCQQYGSSPPITFGQGTRLDIK

Where only a bound is given, the exact number is not on record here.

The target in the assay is SARS-CoV-2 spike RBD (WT) (Severe acute respiratory syndrome …, UniProt P0DTC2). Kind of assay: ELISA. The arrangement: unit not given here. On the technique in general: In an ELISA, binding on a coated surface is turned into a signal by an enzyme label.
In turn, B1 registered a binding score of over 10000.

The molecule B2 returned a binding score of over 10000.

In turn, B3 returned a binding score of over 10000.

With B4, the binding score came to 230.

On to B5, for which the binding score was 1200.

Take B6: the binding score was over 10000.

Regarding B7, the binding score was over 10000.

Molecule B8 came in with a binding score of over 10000.

Regarding B9, the binding score is over 10000.

As to B10, the binding score was found to be 311.

The molecule B11 displayed a binding score of 2330.

In the case of B12, the binding score was over 10000.

The molecule B13 returned a binding score of over 10000.

With B14, the binding score is over 10000.

Molecule B15 came in with a binding score of over 10000.

Molecule B16 gave a binding score of over 10000.

B17 showed a binding score of over 10000.

B18: the binding score stood at 1110.
